According to patent publication US20200231652A1:

Key:
[1] = target: TGF-β2 (UniProt P61812); experiment: cell-based or functional assay
[2] = target: TGF-β1 (UniProt P01137); experiment: cell-based or functional assay
[3] = target: TGF-β3 (UniProt P10600); experiment: cell-based or functional assay
[4] = target: TGF-β1 (UniProt P01137)

TGF-β1, sequence (P01137 279-390 limits assumed): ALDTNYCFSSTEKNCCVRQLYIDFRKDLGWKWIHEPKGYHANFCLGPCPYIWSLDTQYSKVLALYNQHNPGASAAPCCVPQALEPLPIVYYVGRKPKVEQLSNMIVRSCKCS
TGF-β2, sequence (P61812 303-414 limits assumed): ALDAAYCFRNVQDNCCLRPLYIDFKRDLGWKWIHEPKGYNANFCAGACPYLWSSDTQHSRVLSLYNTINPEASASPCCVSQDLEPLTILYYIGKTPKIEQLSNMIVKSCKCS
TGF-β3, sequence (P10600 301-412 limits assumed): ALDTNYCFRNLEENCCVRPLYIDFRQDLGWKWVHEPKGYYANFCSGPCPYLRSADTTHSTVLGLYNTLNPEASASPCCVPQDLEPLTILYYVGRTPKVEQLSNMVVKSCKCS

Row | Av IC50, TGF-β neutralization, Mv1Lu cell luciferase reporter assay [1] [pM] | Av IC50, TGF-β neutralization, Mv1Lu cell luciferase reporter assay [2] [pM] | IC50, A549 cell IL-11 release assay [2] [pM] | Av IC50, TGF-β neutralization, Mv1Lu cell luciferase reporter assay [3] [pM] | Fold Change Fc-T2m, A549 cell IL-11 release assay [table] [4] [fold] | Fold Change T22d35, A549 cell IL-11 release assay [table] [4] [fold] | IC50, A549 cell IL-11 release assay [table] [4] [pM] | Binder
1 | 108000 | 1.45 | 5 | 0.026 | 9 | 94 | 6.17 | hIgG2Fc-CCCC-T22d35 fusion (Fc fusion) ERKCCVECPPCPAPPVAGPSVFLFPPKPKDTLMISRTPEVTCVVVDVSHEDPEVQFNWYVDGVEVHNAKTKPREEQFNSTFRVVSVLTVVHQDWLNGKEYKCKVSNKGLPAPIEKTISKTKGQPREPQVYTLPPSREEMTKNQVSLTCLVKGFYPSDISVEWESNGQPENNYKTTPPMLDSDGSFFLYSKLTVDKSRWQQGNVFSCSVMHEALHNHYTQKSLSLSPGKIPPHVQKSVNNDMIVTDNNGAVKFPQLCKFCDVRFSTCDNQKSCMSNCSITSICEKPQEVCVAVWRKNDENITLETVCHDPKLPYHDFILEDAASPKCIMKEKKKPGETFFMCSCSSDECNDNIIFSEEYNTSNPDIPPHVQKSVNNDMIVTDNNGAVKFPQLCKFCDVRFSTCDNQKSCMSNCSITSICEKPQEVCVAVWRKNDENITLETVCHDPKLPYHDFILEDAASPKCIMKEKKKPGETFFMCSCSSDECNDNIIFSEEYNTSNPD
2 | 433000 | 0.017 |  | 0.015 |  |  |  | FC5-Fc-T2m (Fc fusion) EVQLQASGGGLVQAGGSLRLSCAASGFKITHYTMGWFRQAPGKEREFVSRITWGGDNTFYSNSVKGRFTISRDNAKNTVYLQMNSLKPEDTADYYCAAGSTSTATPLRVDYWGKGTQVTVSSASEPRGPTIKPCPPCKCPAPNLLGGPSVFIFPPKIKDVLMISLSPIVTCVVVDVSEDDPDVQISWFVNNVEVHTAQTQTHREDYNSTLRVVSALPIQHQDWMSGKEFKCKVNNKDLPAPIERTISKPKGSVRAPQVYVLPPPEEEMTKKQVTLTCMVTDFMPEDIYVEWTNNGKTELNYKNTEPVLDSDGSYFMYSKLRVEKKNWVERNSYSCSVVHEGLHNHHTTKSFSRTPGTGIPPHVQKSVNNDMIVTDNNGAVKFPQLCKFCDVRFSTCDNQKSCMSNCSITSICEKPQEVCVAVWRKNDENITLETVCHDPKLPYHDFILEDAASPKCIMKEKKKPGETFFMCSCSSDECNDNIIFSEEYNTSNPD
3 | 96200 | 0.001 | 5 | 0.001 | 10 | 101 | 5.73 | FC5-Fc-T22d35 (Fc fusion) EVQLQASGGGLVQAGGSLRLSCAASGFKITHYTMGWFRQAPGKEREFVSRITWGGDNTFYSNSVKGRFTISRDNAKNTVYLQMNSLKPEDTADYYCAAGSTSTATPLRVDYWGKGTQVTVSSASEPRGPTIKPCPPCKCPAPNLLGGPSVFIFPPKIKDVLMISLSPIVTCVVVDVSEDDPDVQISWFVNNVEVHTAQTQTHREDYNSTLRVVSALPIQHQDWMSGKEFKCKVNNKDLPAPIERTISKPKGSVRAPQVYVLPPPEEEMTKKQVTLTCMVTDFMPEDIYVEWTNNGKTELNYKNTEPVLDSDGSYFMYSKLRVEKKNWVERNSYSCSVVHEGLHNHHTTKSFSRTPGTGIPPHVQKSVNNDMIVTDNNGAVKFPQLCKFCDVRFSTCDNQKSCMSNCSITSICEKPQEVCVAVWRKNDENITLETVCHDPKLPYHDFILEDAASPKCIMKEKKKPGETFFMCSCSSDECNDNIIFSEEYNTSNPDIPPHVQKSVNNDMIVTDNNGAVKFPQLCKFCDVRFSTCDNQKSCMSNCSITSICEKPQEVCVAVWRKNDENITLETVCHDPKLPYHDFILEDAASPKCIMKEKKKPGETFFMCSCSSDECNDNIIFSEEYNTSNPD
